Laboratory results: publication PMC11912937

Target: FACT complex (SPT16/SSRP1), full length, untreated (human) (UniProt Q9Y5B9)
Assay: SEC; analytical SEC of CCAN with different amounts of FACT; peak fractions on SDS-PAGE with TCE, tryptophan fluorescence of the bands normalised to the number of tryptophans and to SPT16

Sequence of FACT complex (SPT16/SSRP1), full length, untreated (human) (Q9Y5B9 whole entry, chain 1 of 2): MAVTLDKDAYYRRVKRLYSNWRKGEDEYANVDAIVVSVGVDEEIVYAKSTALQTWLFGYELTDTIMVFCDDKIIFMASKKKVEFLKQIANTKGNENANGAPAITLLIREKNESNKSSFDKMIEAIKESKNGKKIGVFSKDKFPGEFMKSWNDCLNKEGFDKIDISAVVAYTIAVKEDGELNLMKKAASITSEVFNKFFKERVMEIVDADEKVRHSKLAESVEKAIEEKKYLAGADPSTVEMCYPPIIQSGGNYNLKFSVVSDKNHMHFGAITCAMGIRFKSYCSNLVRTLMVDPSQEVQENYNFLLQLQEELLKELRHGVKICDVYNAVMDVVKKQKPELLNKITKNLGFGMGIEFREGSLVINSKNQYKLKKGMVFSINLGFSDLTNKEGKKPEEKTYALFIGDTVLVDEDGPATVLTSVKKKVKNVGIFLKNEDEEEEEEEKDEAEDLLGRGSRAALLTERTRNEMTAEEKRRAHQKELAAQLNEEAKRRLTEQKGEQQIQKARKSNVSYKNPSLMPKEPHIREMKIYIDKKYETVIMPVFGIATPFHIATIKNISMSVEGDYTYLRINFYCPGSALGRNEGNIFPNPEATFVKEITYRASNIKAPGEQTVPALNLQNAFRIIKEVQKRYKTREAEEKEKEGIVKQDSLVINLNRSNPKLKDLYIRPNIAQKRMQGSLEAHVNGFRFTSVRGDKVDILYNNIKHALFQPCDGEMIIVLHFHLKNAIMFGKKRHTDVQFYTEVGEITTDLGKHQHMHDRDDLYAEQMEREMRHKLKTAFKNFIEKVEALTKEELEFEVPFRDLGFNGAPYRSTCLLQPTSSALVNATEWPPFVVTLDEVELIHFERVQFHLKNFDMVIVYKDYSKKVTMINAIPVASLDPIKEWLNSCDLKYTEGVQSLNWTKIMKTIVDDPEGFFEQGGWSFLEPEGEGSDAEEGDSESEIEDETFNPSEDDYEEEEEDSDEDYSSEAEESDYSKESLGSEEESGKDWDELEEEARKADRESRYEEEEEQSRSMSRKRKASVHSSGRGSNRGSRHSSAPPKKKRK
Sequence of FACT complex (SPT16/SSRP1), full length, untreated (human) (Q08945 whole entry, chain 2 of 2, further chain): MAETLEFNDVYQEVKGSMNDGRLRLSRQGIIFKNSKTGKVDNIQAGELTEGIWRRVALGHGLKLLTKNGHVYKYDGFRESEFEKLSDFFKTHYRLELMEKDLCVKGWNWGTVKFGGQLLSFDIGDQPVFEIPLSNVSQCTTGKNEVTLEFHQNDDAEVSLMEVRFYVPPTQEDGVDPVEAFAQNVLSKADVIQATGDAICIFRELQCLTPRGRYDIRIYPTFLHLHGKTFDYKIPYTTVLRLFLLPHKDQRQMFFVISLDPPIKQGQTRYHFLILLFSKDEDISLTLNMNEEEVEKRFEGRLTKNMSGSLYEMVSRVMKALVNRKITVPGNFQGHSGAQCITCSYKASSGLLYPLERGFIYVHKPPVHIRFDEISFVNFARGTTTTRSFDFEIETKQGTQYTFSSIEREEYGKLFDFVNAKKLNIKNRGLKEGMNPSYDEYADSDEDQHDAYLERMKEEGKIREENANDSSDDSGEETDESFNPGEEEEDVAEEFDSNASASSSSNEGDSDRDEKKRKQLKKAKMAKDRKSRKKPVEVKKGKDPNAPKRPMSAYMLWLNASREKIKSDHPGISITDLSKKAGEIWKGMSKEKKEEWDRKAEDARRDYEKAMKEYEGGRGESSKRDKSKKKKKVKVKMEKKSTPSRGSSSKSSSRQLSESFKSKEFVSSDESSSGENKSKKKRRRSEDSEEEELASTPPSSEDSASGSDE

stoichiometry N (FACT per CCAN): 1
Substance: CCAN, 16-subunit constitutive centromere-associated network reconstituted with CENP-C^2–545 (from UniProt Q03188 2-545; Q9H3R5 1-247; Q92674 1-756; Q9BS16 1-269; Q9NSP4 1-180; Q8N0S6 1-344; Q96H22 1-339; Q9BU64 1-300; Q6IPU0 1-288; Q7L2Z9 1-268; Q71F23 1-418; Q13352 1-177; Q96BT3 1-561; Q5EE01 1-88; Q8N2Z9 1-138; A8MT69 1-81) (complex)
